Target: Recombinant 6×His-tagged CrMCA-II (Chlamydomonas reinhardtii)
Test: SEC; purified rCrMCA-II in buffer without DTT and Ca2+; with 1 mM DTT in the SEC buffer the dimer-to-monomer ratio decreased

- stoichiometry N: 2
Substance: Recombinant 6×His-tagged CrMCA-II (enzyme)
